B1: dBr_Jan07_31948 (dsDNA)
DNA 1: TGTCATTACCTGTCCGAGCAGGACAAAAAACCACGTGTCTGTGTTCCGTTGTCCGTGCTG
DNA 2: CAGCACGGACAACGGAACACAGACACGTGGTTTTTTGTCCTGCTCGGACAGGTAATGACA
B2: dBr_Jan07_17567 (dsDNA)
DNA 1: CCAAGAGGACCACGTGCTTTGGTCTCTAACTCGTATGTCTGTGTTCCGTTGTCCGTGCTG
DNA 2: CAGCACGGACAACGGAACACAGACATACGAGTTAGAGACCAAAGCACGTGGTCCTCTTGG
B3: dBr_Jan07_17036 (dsDNA)
DNA 1: ACATTTCTCCGCTCGTCCCACATAGCGTCACGTGGGGTCTGTGTTCCGTTGTCCGTGCTG
DNA 2: CAGCACGGACAACGGAACACAGACCCCACGTGACGCTATGTGGGACGAGCGGAGAAATGT
B4: dBr_Jan07_20580 (dsDNA)
DNA 1: AAATACCTATCGATAACCACTCACGTGGTGGTTCGCGTCTGTGTTCCGTTGTCCGTGCTG
DNA 2: CAGCACGGACAACGGAACACAGACGCGAACCACCACGTGAGTGGTTATCGATAGGTATTT
B5: dBr_Jan07_40749 (dsDNA)
DNA 1: CTTCATGTCGCCCGCGTGGGTTGCCACACCAAGTGCGTCTGTGTTCCGTTGTCCGTGCTG
DNA 2: CAGCACGGACAACGGAACACAGACGCACTTGGTGTGGCAACCCACGCGGGCGACATGAAG
B6: dBr_Jan07_41742 (dsDNA)
DNA 1: AGAGTCATTGGGGAGGCAAAATTCCCACGTGTATCGGTCTGTGTTCCGTTGTCCGTGCTG
DNA 2: CAGCACGGACAACGGAACACAGACCGATACACGTGGGAATTTTGCCTCCCCAATGACTCT
B7: dBr_Jan07_02651 (dsDNA)
DNA 1: TGCATAACGACCGGCACGTGCCTTTCATATGTATCTGTCTGTGTTCCGTTGTCCGTGCTG
DNA 2: CAGCACGGACAACGGAACACAGACAGATACATATGAAAGGCACGTGCCGGTCGTTATGCA
B8: dBr_Jan07_17989 (dsDNA)
DNA 1: GTCACGTGAATGCGACCCGCCAATTGGAAATTAAATGTCTGTGTTCCGTTGTCCGTGCTG
DNA 2: CAGCACGGACAACGGAACACAGACATTTAATTTCCAATTGGCGGGTCGCATTCACGTGAC
B9: dBr_Jan07_14817 (dsDNA)
DNA 1: AGCGAGAGGCTGCTCACTCGTGGCAACACCCACGTGGTCTGTGTTCCGTTGTCCGTGCTG
DNA 2: CAGCACGGACAACGGAACACAGACCACGTGGGTGTTGCCACGAGTGAGCAGCCTCTCGCT
B10: dBr_Jan07_02368 (dsDNA)
DNA 1: CTGTAGAACTGGCATCTTCAATCCACCGCGTGGTGAGTCTGTGTTCCGTTGTCCGTGCTG
DNA 2: CAGCACGGACAACGGAACACAGACTCACCACGCGGTGGATTGAAGATGCCAGTTCTACAG
B11: dBr_Jan07_10488 (dsDNA)
DNA 1: ACCTCGGACATGCACATTTGTCTTAAACCACGTGCGGTCTGTGTTCCGTTGTCCGTGCTG
DNA 2: CAGCACGGACAACGGAACACAGACCGCACGTGGTTTAAGACAAATGTGCATGTCCGAGGT
B12: dBr_Jan07_28926 (dsDNA)
DNA 1: CGCAGCCATTACCGCGTGGGAGTATTCGCCCGTACGGTCTGTGTTCCGTTGTCCGTGCTG
DNA 2: CAGCACGGACAACGGAACACAGACCGTACGGGCGAATACTCCCACGCGGTAATGGCTGCG
B13: dBr_Jan07_27306 (dsDNA)
DNA 1: ACTATACAGTTTATTCATACACGGGTGCCTGCACGTGTCTGTGTTCCGTTGTCCGTGCTG
DNA 2: CAGCACGGACAACGGAACACAGACACGTGCAGGCACCCGTGTATGAATAAACTGTATAGT
B14: dBr_Jan07_03394 (dsDNA)
DNA 1: ATGGACCAATTGCGCGGAATGACGTGTCGCGCACGTGTCTGTGTTCCGTTGTCCGTGCTG
DNA 2: CAGCACGGACAACGGAACACAGACACGTGCGCGACACGTCATTCCGCGCAATTGGTCCAT
B15: dBr_Jan07_06714 (dsDNA)
DNA 1: TTCCGCGTGGACGTGACATCGTAGACGATTACCCACGTCTGTGTTCCGTTGTCCGTGCTG
DNA 2: CAGCACGGACAACGGAACACAGACGTGGGTAATCGTCTACGATGTCACGTCCACGCGGAA
B16: dBr_Jan07_13904 (dsDNA)
DNA 1: CGCTGCCCCATATTTGTCATGCGTTTGCGGCACGTGGTCTGTGTTCCGTTGTCCGTGCTG
DNA 2: CAGCACGGACAACGGAACACAGACCACGTGCCGCAAACGCATGACAAATATGGGGCAGCG
B17: dBr_Jan07_09181 (dsDNA)
DNA 1: CACATTATTTCACACGTGGACGGCACCCACAAACACGTCTGTGTTCCGTTGTCCGTGCTG
DNA 2: CAGCACGGACAACGGAACACAGACGTGTTTGTGGGTGCCGTCCACGTGTGAAATAATGTG
B18: dBr_Jan07_37497 (dsDNA)
DNA 1: CCAGTTAGTAACACGTGTCCACTCCTTGTCGTACAGGTCTGTGTTCCGTTGTCCGTGCTG
DNA 2: CAGCACGGACAACGGAACACAGACCTGTACGACAAGGAGTGGACACGTGTTACTAACTGG
B19: dBr_Jan07_24960 (dsDNA)
DNA 1: CGCAAAGCATTATCAACCTGGGTGCCTATCACGTGGGTCTGTGTTCCGTTGTCCGTGCTG
DNA 2: CAGCACGGACAACGGAACACAGACCCACGTGATAGGCACCCAGGTTGATAATGCTTTGCG
B20: dBr_Jan07_23485 (dsDNA)
DNA 1: CAGTGTAGAAAGTGAACACGTGTGACACGCCTGGTTGTCTGTGTTCCGTTGTCCGTGCTG
DNA 2: CAGCACGGACAACGGAACACAGACAACCAGGCGTGTCACACGTGTTCACTTTCTACACTG
B21: dBr_Jan07_11048 (dsDNA)
DNA 1: CGAAATCTTACATGCTCTTGGGTCTAAGACGCACGTGTCTGTGTTCCGTTGTCCGTGCTG
DNA 2: CAGCACGGACAACGGAACACAGACACGTGCGTCTTAGACCCAAGAGCATGTAAGATTTCG
B22: dBr_Jan07_17844 (dsDNA)
DNA 1: AATGGACTCGTTTTTTTTGCGTTATTAGACCACGCGGTCTGTGTTCCGTTGTCCGTGCTG
DNA 2: CAGCACGGACAACGGAACACAGACCGCGTGGTCTAATAACGCAAAAAAAACGAGTCCATT
B23: dBr_Jan07_23034 (dsDNA)
DNA 1: TCCGTACGGTCTCGTTCCATAGCTTGCTACCATGTGGTCTGTGTTCCGTTGTCCGTGCTG
DNA 2: CAGCACGGACAACGGAACACAGACCACATGGTAGCAAGCTATGGAACGAGACCGTACGGA
B24: dBr_Jan07_20507 (dsDNA)
DNA 1: GTGCCCGATTGTCTACGGCACCACGTGTGTTACCAGGTCTGTGTTCCGTTGTCCGTGCTG
DNA 2: CAGCACGGACAACGGAACACAGACCTGGTAACACACGTGGTGCCGTAGACAATCGGGCAC

Biological target: WT Max (Homo sapiens, UniProt P61244-2 13-93, M65Nle, norleucine written as M; other non-natural residues written as X)
Sequence (P61244 other isoform, or with tags, fused parts or gaps M65Nle): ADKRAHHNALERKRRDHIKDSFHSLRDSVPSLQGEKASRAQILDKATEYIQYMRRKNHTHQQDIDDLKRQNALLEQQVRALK
Assay: PBM; 50-200 nM protein; PBS, 2% milk, BSA, salmon testes DNA, 0.02% Triton X-100
Conditions: chain copies: 2; label: surface-attached array probe

Going from B1 to B2, the binding signal falls from 4.44 robust z of log adjusted intensity (ours), mean of two arrays to 3.82 robust z of log adjusted intensity (ours), mean of two arrays.

Going from B3 to B4, the binding signal falls from 4.03 robust z of log adjusted intensity (ours), mean of two arrays to 3.85 robust z of log adjusted intensity (ours), mean of two arrays.

First: B5
Second: B6
The binding signal of the first is higher: 4.44 robust z of log adjusted intensity (ours), mean of two arrays for the first, 4.07 robust z of log adjusted intensity (ours), mean of two arrays for the second.

First: B7
Second: B8
The binding signal of the first is lower: 3.82 robust z of log adjusted intensity (ours), mean of two arrays for the first, 4.17 robust z of log adjusted intensity (ours), mean of two arrays for the second.

Going from B9 to B10, the binding signal rises from 4.16 robust z of log adjusted intensity (ours), mean of two arrays to 5.5 robust z of log adjusted intensity (ours), mean of two arrays.

Compared with B11, B12 is lower in binding signal: 4.16 robust z of log adjusted intensity (ours), mean of two arrays for the first, 3.92 robust z of log adjusted intensity (ours), mean of two arrays for the second.

Compared with B13, B14 is lower in binding signal: 3.99 robust z of log adjusted intensity (ours), mean of two arrays for the first, 3.89 robust z of log adjusted intensity (ours), mean of two arrays for the second.

Compared with B15, B16 is lower in binding signal: 4.26 robust z of log adjusted intensity (ours), mean of two arrays for the first, 3.73 robust z of log adjusted intensity (ours), mean of two arrays for the second.

Compared with B17, B18 is higher in binding signal: 3.99 robust z of log adjusted intensity (ours), mean of two arrays for the first, 4.27 robust z of log adjusted intensity (ours), mean of two arrays for the second.

Compared with B19, B20 is higher in binding signal: 4.08 robust z of log adjusted intensity (ours), mean of two arrays for the first, 4.26 robust z of log adjusted intensity (ours), mean of two arrays for the second.

Going from B21 to B22, the binding signal falls from 5.56 robust z of log adjusted intensity (ours), mean of two arrays to 3.78 robust z of log adjusted intensity (ours), mean of two arrays.

Going from B23 to B24, the binding signal rises from 3.64 robust z of log adjusted intensity (ours), mean of two arrays to 4.13 robust z of log adjusted intensity (ours), mean of two arrays.

Reference: publication PMC12636033, “Chemical Engineering of Transcription Factors Uncovered Cell-Permeable μMax Modulators”
